Results on two molecules are retold here after patent EP3080145B1.

Assay [1] addresses HFBI variant D40Q/D43N (Trichoderma reesei) (UniProt P52754). Kind of assay: QCM-D, enzyme injected over adsorbed D40Q/D43N layer, pH series.
For assay [2] the target is unchanged. Kind of assay: QCM-D, enzyme injected over adsorbed D40Q/D43N layer, around pH 5.

Chain of UniProt P52754 (P52754 23-97 D62Q/D65N, form in doubt): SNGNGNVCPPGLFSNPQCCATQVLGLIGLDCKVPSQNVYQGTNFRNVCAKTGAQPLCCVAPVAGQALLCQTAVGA

In assay [1], “Trichoderma reesei xylanase II (from UniProt P36217 34-223) (enzyme)” had an adsorbed mass of 55 to 100 ng/cm^2.

B1: Trichoderma reesei cellobiohydrolase I (enzyme, UniProt P62694 18-513, looked up)
chain: QSACTLQSETHPPLTWQKCSSGGTCTQQTGSVVIDANWRWTHATNSSTNCYDGNTWSSTLCPDNETCAKNCCLDGAAYASTYGVTTSGNSLSIGFVTQSAQKNVGARLYLMASDTTYQEFTLLGNEFSFDVDVSQLPCGLNGALYFVSMDADGGVSKYPTNTAGAKYGTGYCDSQCPRDLKFINGQANVEGWEPSSNNANTGIGGHGSCCSEMDIWEANSISEALTPHPCTTVGQEICEGDGCGGTYSDNRYGGTCDPDGCDWNPYRLGNTSFYGPGSSFTLDTTKKLTVVTQFETSGAINRYYVQNGVTFQQPNAELGSYSGNELNDDYCTAEEAEFGGSSFSDKGGLTQFKKATSGGMVLVMSLWDDYYANMLWLDSTYPTNETSSTPGAVRGSCSTSSGVPAQVESQSPNAKVTFSNIKFGPIGSTGNPSGGNPPGGNRGTTTTRRPATTTGSSPGPTQSHYGQCGGIGYSGPTVCASGTTCQVLNPYYSQCL
B1: the maximum adsorption (adsorbed mass) in assay [2] is 600 ng/cm^2.
